Data on 69 sequences can be found in the domain aggregation screens of Martell et al. (2025).

The series is described as follows: soluble fraction after stress (log2 fold change); higher = more stays soluble; pooled small domains, quantitative proteomics. Particulars: stress: pH 4. The method, boiled down: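 Aggregation propensity is estimated from the fold change in each domain's soluble amount after acid stress. Pooled small-domain libraries were stressed at pH 4, and higher log2 values mean more stayed soluble.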
With “HMTLHDLFPQAVEFVSEKEMISTAELQRKLMISYNSAAKIIDQLLHVDFIQKSESAGKYSVLIK”, the “soluble fraction (log2)” value is -0.486.

Consider “HMTLNTQLFTWKKGVRVGEDDQGNIYYRTKDDKRRWVIFTGETEATKVSPDWHGWLHRTWATPPNK”, for which the “soluble fraction (log2)” value was -0.14.

Turning to “HMTLPGQDFIRASQLKELIAKYDKQYYEEGVSDISDAEYDRLYEEYLEFENKYPELKDMADAPTKRV”, the “soluble fraction (log2)” value was -0.661.

Consider “HMTLREQISALIKQGKLTQAKLARETGVNGGALSAWINGKYTGNVETVEEPIKHWMALNERK”, for which the “soluble fraction (log2)” value is at least 0.43.

In the case of “HMTLSVRQRMSQIINKIDVSNFTDFTKLFDINEGRLGVAVTFLAILELLKDTMIDVIQNEEFAPLHIKVSS”, the “soluble fraction (log2)” value was -0.339.

For “HMTMIIQLDKNITQEQRQFLVEELNRLSISPNFVSTQFTNYIVGIPKKEFDIRLIGNLPGIADIHFV”, the “soluble fraction (log2)” value was -0.269.

For the sequence “HMTMKVTADILNMRSEASTNSDIVTKLKKDDELKVIEETKDDDGVTWVKVDFNGQVGFVSKEFLG”, the “soluble fraction (log2)” value was -0.623.

In the case of “HMTMLLEYNVSRSSKWMNKTIMDAEIPDDILIVMIKRNGQVIVPKGSTEILENDILVLSGNNLNEVALG”, the “soluble fraction (log2)” value was -1.46.

Consider “HMTMNYYDILSIKRDATLEEIQKAYKEKSFQFHPDFNKGISDDSMFRIIKEAYETLSDTEKRNQYDASLNK”, for which the “soluble fraction (log2)” value was -0.134.

Regarding “HMTMQTAEQESRLEQKLIDLSVGIDRFEGYSRPHGQLIASIADRIGTRLGMAAHDRFYMQQAAL”, the “soluble fraction (log2)” value was -0.0547.

Consider “HMTNADRFIGEEAMVIKKIDDINNDGQVKIAGQVWSAVSEDKSPLEEGTIVKVIAIRGVKLVVEPVS”, for which the “soluble fraction (log2)” value was determined as 0.0967.

For the sequence “HMTNALDMMKTMDSDAYTKYQKISKESSNEDRQLNELKYITNWYAGAVKKNPSMVDDYEKQKEADS”, the “soluble fraction (log2)” value amounted to 0.162.

Consider “HMTNELTEIFNSIRLTKKQKELLQSNYLSLRETYFLQGKTAFNLKFKNIAGLGKSTKKVLLEFFEESIE”, for which the “soluble fraction (log2)” value was -0.499.

Consider “HMTNIDIEKSIKNTITANYDDVLNYHNEDDNKTFASGDSRYSFDYDEKTKTLIVFTNSKVDAVFVDGIKKK”, for which the “soluble fraction (log2)” value was determined as 0.255.

For the sequence “HMTNISDYILEEYYKNVYPNDLNTKRIVIPNKYEEYAGKYTYITIARMVTYEHDAKKALKVLHQQAT”, the “soluble fraction (log2)” value is -0.346.

Regarding “HMTNKYSSLVIGTVKTIMEEDQYKNLMGPPLKKEIIKQVDKFTNALPIEFDQNDKDFYVKKILINL”, the “soluble fraction (log2)” value was -0.299.

Regarding “HMTNLKALRESKGVSQQTVADYLGITRQAYGNYETGKRQADYAALLRLAAFFGVSVDALLQP”, the “soluble fraction (log2)” value turned out to be 0.102.

On to “HMTNNDIIRRVRYLFNFSDKQVIELFKLANETVSIEHVSGWLKKEEDPTLIEISDRDLAVFLNGLII”, for which the “soluble fraction (log2)” value was -1.65.

With “HMTNQEFNEVFKLLLAAYPNTKDKESVATIYFLTIANELTKKEFAEAVVKILKTRKSGFIPQPAEILEVAK”, the “soluble fraction (log2)” value was -0.208.

Turning to “HMTNSAGIERFLASGAIDGVGPAMARRIVEHFGTEALRIIESVPHRLREISGIGPKTAEKIASSYMRQ”, the “soluble fraction (log2)” value is -0.618.

For “HMTNTDALINRAAKVVEEINPDKNTGRVSIDGDLWRAKSSSGELIEQNKQVIVISIESTIVTVKI”, the “soluble fraction (log2)” value is -0.317.

Regarding “HMTNTWNNIVERNDLFFKKFTNTPFNGKIETYWPNGNLKETGIITDGKKDNLWEYYYENGNPKEVEF”, the “soluble fraction (log2)” value was -0.0781.

“HMTNVFSIIGKKALVIKDIDPIHSSGQIKLNGEVWSAETENDEIIKEGSEVEVLKINGVKAIVKLV”: the “soluble fraction (log2)” value came to 0.149.

As to “HMTNVIPKAMAPFNGSTIIADGIKNIKDHIDNLYITVGYKGATLSEHVINKGVSAVFNTTGKGNAWWVYN”, the “soluble fraction (log2)” value turned out to be 0.00444.

Turning to “HMTNVLSEQESKLLERMNKAGLNAEITVKKAAQILNLSESAARNVLNRLVGKGYLTVDTSRLPFLFQR”, the “soluble fraction (log2)” value is 0.122.

In the case of “HMTNVVSKNKAKEIAMNIINDTVLQGQTAATFKEIVKANGVYVVKIEIQGQEYTSYITKDGKIVFPYGVEV”, the “soluble fraction (log2)” value is -0.661.

In the case of “HMTNYSFIVNENFNNKRIDQVVANHYPKISRTKVNKIIKNNLLKLNGSTFNDPSAKVKLGDQIEFENL”, the “soluble fraction (log2)” value came out at 0.00451.

For the sequence “HMTPAKQVSAKAERWIDQLGSSDWEKREEAAAELKKLGGAAKSALEKALKNADPEVASKAEELLEALES”, the “soluble fraction (log2)” value amounted to 0.213.

As to “HMTPATVVIPKVAGQTVAEAKETLKNANFEIGEEKDESSDTVEEGRVIRTDPESGTNRKEGTKINLIVSS”, the “soluble fraction (log2)” value is 0.0687.

For the sequence “HMTPFVINVDRHGAVIINEKTVDIDEAVVLARQERSQGKSILLAGDKKAPYEAIIRVLDALKQAG”, the “soluble fraction (log2)” value was -0.464.

Consider “HMTPNATWQDDAQNLLRDLIQHQPVLVQISAAKRLRDQAEQISRITGGETVTREHVEAAGHALGMGVT”, for which the “soluble fraction (log2)” value is -0.0443.

Regarding “HMTPNRDDEHLQSLRDYYASNRRIPSLQRIAALLGFSSRSAAVKLMGRLADEGFVERTVDDDAWIPGSRFF”, the “soluble fraction (log2)” value was -0.194.

Take “HMTPQDYEYLRKLLKDQSGLDLSVDKQYLLESRLVPLSRKAGLAGIPELVQKMKAGSASLTAQVVEAMTT”: the “soluble fraction (log2)” value was found to be 0.07.

For the sequence “HMTPVFGEEETVLQAAVRGIISDTDQWTMEAEAKSMLNQLGFSDYEEKMAHMSGGQKKRVALVNALLTP”, the “soluble fraction (log2)” value is -0.555.

On to “HMTQDFEPGGQVFSRGEWLTIIRVNKSNGAVSSVTTPNYSFLGYSGTMKVTPDRITDYKAPSAEEAAVAS”, for which the “soluble fraction (log2)” value is -0.0277.

In the case of “HMTQGRVTGDGVNVRSQPNTDSAILTRVSTGKVVELISLKDNWYNVVVNGTKGYIRADYVSPYDG”, the “soluble fraction (log2)” value amounted to 0.00816.

Take “HMTQLPEVPVERGMVLEEVQSGWVGAVTRVEKSGGMHVVALEDRRGKSRSFRLGFGFLLEGQPIRLMPPAP”: the “soluble fraction (log2)” value is -0.882.

As for “HMTRAETPMAFIRAMVEAYTERGLDPNQALRKAQITPSQLKSTNARVTTLQMEWMSETAMREL”, the “soluble fraction (log2)” value is -0.464.

As to “HMTRDAQLAALERLMDDPSPVVRKAVLKGVQAAGTEGLLWLQQLSKNQTLGPYALALLTELR”, the “soluble fraction (log2)” value is -0.0392.

Turning to “HMTRNGTVTFFNHDKGYGFIKDVLTQESVFVHINSLSEPINEQNKVSFEIEMGPRGSNAINVKLI”, the “soluble fraction (log2)” value was -1.86.

Take “HMTRTEYMAQLEKYLKKLPHKEFQEAITFFNEYFDEAGPEKETAIMEELGSPKEAASELITNILNRHI”: the “soluble fraction (log2)” value was -0.101.

On to “HMTRTISKVAKELAINIETVRFYERRGLIEQPPKPELGYRHYPDETVNRIRFIKRAQELGFTLEEIANLLS”, for which the “soluble fraction (log2)” value is -1.21.

With “HMTRVDALDQLAAIRFSSHIFAEDQDLRMVVVDGQRIGEGDIVRDEIRLEQITETGVIFEYQGERFPIDV”, the “soluble fraction (log2)” value is -2.21.

“HMTRYQHLAMLLEKRIAQGLYRNGERLPSVRSLSAEHGVSISTVQQAYYLLEQKQLIIPQSRSGYYVAPH”: the “soluble fraction (log2)” value is -0.378.

Consider “HMTSEVPVGSNVRIRASTLAGERDFEGTMLPPAGEGLTTLKLVNGYNLSYPSKDVLDIEFLGGAGE”, for which the “soluble fraction (log2)” value was -0.367.

“HMTSHPTHTILDGKVHVFMRDGSPFWWGGFHFKGKYLRTSTKQKNLDSAKTIAQQWYFQKQTEIASGE”: the “soluble fraction (log2)” value is -0.0801.

As to “HMTSKVTVLAVNGRITVSGKEQDETVSVYDTGGRLLYQGESDVINVPRKAMYIVTVSRKSYKVIV”, the “soluble fraction (log2)” value was determined as 0.00912.

For “HMTSLAGIERFLASGAIAGVGEAMAHRLVQKFGKETLEIIEKKPSRLTEVAGVGKKTAAKIHASYMEK”, the “soluble fraction (log2)” value came to 0.0893.

On to “HMTSLGLEGLVNTTAIATSDLRPSGWALAGERKIFVVSEGEFIDNGDKIRILTVDGNRIVVRKETNK”, for which the “soluble fraction (log2)” value was -0.189.

Take “HMTSLTSDEEQIINVLRAEESVYINALATKSKIPLQKLLGLLIQLEFKGLIHSLPGSHYKIV”: the “soluble fraction (log2)” value is -0.473.

Regarding “HMTSNIIIVPNVVGMTKEQATAALAAAGLNIKLSGVETTDTAAVAVKQKPSANTKVEEGSVVTVEFDLK”, the “soluble fraction (log2)” value was -1.35.

With “HMTSPKSRIVSALLASPSRPEELAMRLGEDILTLMRTLTDFEASGIIQRLPDGRYTPTREYHLGLVDK”, the “soluble fraction (log2)” value is -0.534.

On to “HMTSPRRLYALIVEHVGKDGVMHRSDVENVLAKVESEMDVDDLLDQLEINGTIIRRQDGTWQLL”, for which the “soluble fraction (log2)” value was -1.66.

Turning to “HMTSRFITTEEGTLYVDADGRKVSGWQTIDGSRYYFDEHGIRQSGTIEVNGETYVLDEDGVL”, the “soluble fraction (log2)” value is -1.51.

Consider “HMTSRWEIGYNVAKKYYDEHGNLDVERAVYDNFELKKWLNTQRYKNSAGTLAEKYKIKLDELGMNWER”, for which the “soluble fraction (log2)” value was -0.00494.

For the sequence “HMTSSQLYLIEEDMEGERLDAFLAEVIADLSRTAIKDLISNGRVLVDGQARKPSYRVKEGEQVLIHVPEAR”, the “soluble fraction (log2)” value was -1.31.

Consider “HMTSVFQNSDGTWGHLTKTVNPLIYTIEYGRRTGFSSREEAEESYQRSLTSYQDQLSKLKKERD”, for which the “soluble fraction (log2)” value worked out at 0.223.

On to “HMTSVPGTVVTNANLRGGPGTNYPIVGKAPAGTTVNVVESTADRTWYYLDTGSWIAAFLVKLS”, for which the “soluble fraction (log2)” value is -0.229.

“HMTSVRVPVKKEIWFWAIKESQRDLNEILARFPKMDKWINQEENPTFNQLEKVAKFLRVPFGYMFLDKPPK”: the “soluble fraction (log2)” value stood at 0.332.

As for “HMTTETGTVKWFNEGKGFGFIAPDGGGKDLFAHFKEIQGSGFKTLTENQRVQFEVTQGQKGPQASNIRTL”, the “soluble fraction (log2)” value was -0.183.

“HMTTHEQVAILRRELNGLVGAWHHRTGQAHGVTHSKLRKELGGPPAAVASAAQLSARIEKIRQWAT”: the “soluble fraction (log2)” value was -0.0306.

With “HMTTIAQMTGPQRAAVILLVLGEDHGRTIWQEFDDDEIRIITRAMAELGTVDADEVERLMLDFVGKLSS”, the “soluble fraction (log2)” value was -1.75.

Take “HMTTIAQNISNYRTRANMTQQQVADKLSVSHHTVSKWELGINTPSVEDMQKLAQVFGVTITELVVD”: the “soluble fraction (log2)” value is -0.662.

With “HMTTIHVDPEKISKIIGPGGKTIKKIVEETGAKIDIEEDGRVYIAAVNSEEAAKAIDMINGI”, the “soluble fraction (log2)” value was -0.274.

Take “HMTTIPAGRQQYILSLIRREGTVTVSRLAQELEVSELTIRRDLDQMAARNLVERTHGGATERR”: the “soluble fraction (log2)” value was at least 0.43.

As for “HMTTKEEAAYQAIRSAIIDGELKPGQSVTIRDLASRFDLGRTPITDAMKHLALDGWLETTTGVGTRV”, the “soluble fraction (log2)” value was -0.15.

Consider “HMTTLAADFNSDGRVDIGDLSILAGNWGKSRTNEVDFNKYGDADYNGRIDIIDLSILATQFGQTDNSN”, for which the “soluble fraction (log2)” value is -0.142.

On to “HMTTLDTVARQLRDRIREQLDPTGEMSDESLLRTIEEAVYRYSSSGHVLTANEKETVIRRIFHSFR”, for which the “soluble fraction (log2)” value is -0.201.

“HMTTMNSADLIKELEKAGWTLRGVKGSHHIYTHPARGGHLSVPHPKKDLGAGLARQLRKQAGL”: the “soluble fraction (log2)” value was 0.346.
